Test results reported in the RNAGym collection of RNA variant scans (doi:10.1093/nar/gkz1192).

B1: CPEB3 Ribozyme (parent)
chain: UAACAGGGGGCCACAGCAGAAGCGUUCACGUCGCAGCCCCUGUCAGAUUCUGGUGAAUCUGCGAAUUCUGCUGUAUAUCUC

Variants of: B1
Experiment: self-cleavage, relative activity (ratio to wild type); higher = more cleavage; in vitro, sequencing
Outline: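 CPEB3 self-cleaving ribozyme mutant libraries were made by rounds of error-prone PCR, barcoded, and transcribed in vitro with T7 RNA polymerase for 5 hours at 37°C. Cleavage occurred during transcription and a 15 min DNase I step before EDTA stop. RNAs were reverse transcribed with template switching and Illumina-sequenced, with DNA sequencing mapping barcodes to variants. Relative activity is the variant's cleaved/total read fraction divided by wild type's (minimum 5 reads), averaged across three batches.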

Variant	self-cleavage
UAACAGGGGGCCACAGCAGAAGCGUUCACGUCGCAGCCCCUGUCAGAUUCUGGUGAAUCUGCGAACUCUGCUGUAUGUCUC [U66C A77G]	0.4
UAACAGGGGGCCACAGCAGAAGCGUUCACGUCGCAGCCCCUGUCAGAUUCUGGUGAAUCUGCGAGUUCUGCUGUAUAGCUC [A65G U78G]	0.44
UAACAGGGGGCCACAGCAGAAGCGUUCACGUCGCAGCCCCUGUCAGAUUCUGGUGAAUCUGCGAUUUCUGCUAUAUAUCUC [A65U G73A]	0.29
UAACAGGGGGCCACAGCAGAAGCGUUCACGUCGCAGCCCCUGUCAGAUUCUGGUGAAUCUGCGAUUUCUGCUUUAUAUCUC [A65U G73U]	0.57
UAACAGGGGGCCACAGCAGAAGCGUUCACGUCGCAGCCCCUGUCAGAUUCUGGUGAAUCUGCGAAAUCUGCUGUAUAUCAC [U66A U80A]	0.49
UAACAGGGGGCCACAGCAGAAGCGUUCACGUCGCAGCCCCUGUCAGAUUCUGGUGAAUCUGCGAAAUCUGCUGUAUAUCGC [U66A U80G]	0.64
UAACAGGGGGCCACAGCAGAAGCGUUCACGUCGCAGCCCCUGUCAGAUUCUGGUGAAUCUGCGAAAUCUGCUGUAUAUCCC [U66A U80C]	0.5
UAACAGGGGGCCACAGCAGAAGCGUUCACGUCGCAGCCCCUGUCAGAUUCUGGUGAAUCUGCGAUUUCUGCUGUAUAUCAC [A65U U80A]	0.15
UAACAGGGGGCCACAGCAGAAGCGUUCACGUCGCAGCCCCUGUCAGAUUCUGGUGAAUCUGCGAUUUCUGCUGUAUAUCGC [A65U U80G]	0.21
UAACAGGGGGCCACAGCAGAAGCGUUCACGUCGCAGCCCCUGUCAGAUUCUGGUGAAUCUGCGAUUUCUGCUGUAUAUCCC [A65U U80C]	0.38
UAACAGGGGGCCACAGCAGAAGCGUUCACGUCGCAGCCCCUGUCAGAUUCUGGUGAAUCUGCGAACUCUGCUGUAUAUCUC [U66C]	0.44
UAACAGGGGGCCACAGCAGAAGCGUUCACGUCGCAGCCCCUGUCAGAUUCUGGUGAAUCUGCGAAAUCUGCUGUAUAUCUC [U66A]	0.51
UAACAGGGGGCCACAGCAGAAGCGUUCACGUCGCAGCCCCUGUCAGAUUCUGGUGAAUCUGCGAACUUUGCUGUAUAUCUC [U66C C68U]	0.39
UAACAGGGGGCCACAGCAGAAGCGUUCACGUCGCAGCCCCUGUCAGAUUCUGGUGAAUCUGCGAUUUCAGCUGUAUAUCUC [A65U U69A]	0.3
UAACAGGGGGCCACAGCAGAAGCGUUCACGUCGCAGCCCCUGUCAGAUUCUGGUGAAUCUGCGAUUUCCGCUGUAUAUCUC [A65U U69C]	0.45
UAACAGGGGGCCACAGCAGAAGCGUUCACGUCGCAGCCCCUGUCAGAUUCUGGUGAAUCUGCGAUUUCUGCUGUGUAUCUC [A65U A75G]	0.2
UAACAGGGGGCCACAGCAGAAGCGUUCACGUCGCAGCCCCUGUCAGAUUCUGGUGAAUCUGCGAUUUCUGCUGUUUAUCUC [A65U A75U]	0.36

Variant	self-cleavage
UAACAGGGGGCCACAGCAGAAGCGUUCACGUCGCAGCCCCUGUCAGAUUCUGGUGAAUCUGCGAACACUGCUGUAUAUCUC [U66C U67A]	0.25
UAACAGGGGGCCACAGCAGAAGCGUUCACGUCGCAGCCCCUGUCAGAUUCUGGUGAAUCUGCGAAAUCUGCUGUAUGUCUC [U66A A77G]	0.45
UAACAGGGGGCCACAGCAGAAGCGUUCACGUCGCAGCCCCUGUCAGAUUCUGGUGAAUCUGCGAAAUCUGCUGUAUUUCUC [U66A A77U]	0.65
UAACAGGGGGCCACAGCAGAAGCGUUCACGUCGCAGCCCCUGUCAGAUUCUGGUGAAUCUGCGAUUUCUGCUGUACAUCUC [A65U U76C]	0.24
UAACAGGGGGCCACAGCAGAAGCGUUCACGUCGCAGCCCCUGUCAGAUUCUGGUGAAUCUGCGAUUUCUGCUGUAAAUCUC [A65U U76A]	0.19
UAACAGGGGGCCACAGCAGAAGCGUUCACGUCGCAGCCCCUGUCAGAUUCUGGUGAAUCUGCGAACUCUGCUGUAUAUCUU [U66C C81U]	0.44
UAACAGGGGGCCACAGCAGAAGCGUUCACGUCGCAGCCCCUGUCAGAUUCUGGUGAAUCUGCGAACUCUGCUGUAUAUCUA [U66C C81A]	0.54
UAACAGGGGGCCACAGCAGAAGCGUUCACGUCGCAGCCCCUGUCAGAUUCUGGUGAAUCUGCGAAAUCUGCUGUUUAUCUC [U66A A75U]	0.68
UAACAGGGGGCCACAGCAGAAGCGUUCACGUCGCAGCCCCUGUCAGAUUCUGGUGAAUCUGCGAAAUCUGCUGCAUAUCUC [U66A U74C]	0.86
UAACAGGGGGCCACAGCAGAAGCGUUCACGUCGCAGCCCCUGUCAGAUUCUGGUGAAUCUGCGAAAUCUGCUGGAUAUCUC [U66A U74G]	0.59
UAACAGGGGGCCACAGCAGAAGCGUUCACGUCGCAGCCCCUGUCAGAUUCUGGUGAAUCUGCGAAAUCUGCUGAAUAUCUC [U66A U74A]	0.85
UAACAGGGGGCCACAGCAGAAGCGUUCACGUCGCAGCCCCUGUCAGAUUCUGGUGAAUCUGCGAACUCUGCUAUAUAUCUC [U66C G73A]	0.81
UAACAGGGGGCCACAGCAGAAGCGUUCACGUCGCAGCCCCUGUCAGAUUCUGGUGAAUCUGCGAACUCUGCUCUAUAUCUC [U66C G73C]	0.58
UAACAGGGGGCCACAGCAGAAGCGUUCACGUCGCAGCCCCUGUCAGAUUCUGGUGAAUCUGCGAACUCUGCUUUAUAUCUC [U66C G73U]	1.02
UAACAGGGGGCCACAGCAGAAGCGUUCACGUCGCAGCCCCUGUCAGAUUCUGGUGAAUCUGCGAUUUCUGCUGUAUACCUC [A65U U78C]	0.18
UAACAGGGGGCCACAGCAGAAGCGUUCACGUCGCAGCCCCUGUCAGAUUCUGGUGAAUCUGCGAUUUAUGCUGUAUAUCUC [A65U C68A]	0.21
UAACAGGGGGCCACAGCAGAAGCGUUCACGUCGCAGCCCCUGUCAGAUUCUGGUGAAUCUGCGAUUUUUGCUGUAUAUCUC [A65U C68U]	0.31
